Test results published in patent publication US20240368307A1, “METHODS AND COMPOSITIONS FOR TREATING SEPSIS” (THE UNIVERSITY OF CHICAGO, priority 2023, published 2024).

T1: human recombinant PLA2G5 (Homo sapiens, UniProt P39877)
T1 construct: purchased Cayman chemical 10009563
T1 sequence (P39877 21-138): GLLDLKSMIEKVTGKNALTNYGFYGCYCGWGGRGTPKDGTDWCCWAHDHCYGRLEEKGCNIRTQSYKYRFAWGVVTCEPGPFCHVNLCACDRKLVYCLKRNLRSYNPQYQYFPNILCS

B1: rPLA2G5: human recombinant PLA2G5 (Cayman chemical, 10009563) (protein, UniProt P39877 21-138, looked up)
Phospholipase A2 group V: T1 sequence (P39877 21-138)

Experiments:
human recombinant PLA2G5 = target: T1, human recombinant PLA2G5; experiment: In vitro erythrocyte lysis assay with varespladib; assay type: cell-based; settings: 100 nM of varespladib; PS-exposing erythrocytes
Experimental: (§1) The inventors hypothesized that PLA2G5 impacted red blood cells because of the impact of PLA2G5 blockade on splenic red pulp macrophages and iron stores. […] Next, the inventors examined the effect of osmotic pressure on the hemolysis induced by rPLA2G5.
In vitro erythrocyte lysis assay. Mouse whole blood was spun at 1,000 g, the plasma and buffy coat were removed, and red blood cells were washed three times in Hepes-buffered saline. Subsequently, a portion of erythrocytes was incubated with 100 μM CaCl2) in Hepes-buffered saline for 3 min at 37° C. Calcium ionophore (Cayman Chemical, A23187) was added to a final concentration of 4 μM, and the cells were further incubated for 10 min at 37° C. to induce membrane phospholipid (PS) scrambling. After that, 2 mM EDTA was added to stop the reaction. […] Hemolysis was measured by determining the amount of oxyhemoglobin in the supernatant of erythrocyte suspensions after centrifugation at 4,000 g. The absorbance at 414 nm in the supernatant of erythrocyte suspensions was measured using Nanodrop (Thermoscientific) and compared to that of a hemolyzed aliquot of the same erythrocyte suspension treated with Triton X-100.

mouse RBCs = experiment: In vitro erythrocyte lysis assay with recombinant PLA2G5; assay type: cell-based
Experimental: as §1
In vitro erythrocyte lysis assay. Mouse whole blood was spun at 1,000 g, the plasma and buffy coat were removed, and red blood cells were washed three times in Hepes-buffered saline. Subsequently, a portion of erythrocytes was incubated with 100 μM CaCl2) in Hepes-buffered saline for 3 min at 37° C. Calcium ionophore (Cayman Chemical, A23187) was added to a final concentration of 4 μM, and the cells were further incubated for 10 min at 37° C. to induce membrane phospholipid (PS) scrambling. After that, 2 mM EDTA was added to stop the reaction. In the presence or absence of 100 nM of varespladib, hypertonic solution (100 mM NaCl), or hypotonic solution (water-diluted Hepes-buffered saline), PS-exposing or untreated erythrocytes (10^9 cells/mL) were incubated with 5, 50, or 500 ng/mL of human recombinant PLA2G5 (Cayman chemical, 10009563) for 1 h at 37° C. in Hepes-buffered saline with 2 mM of calcium for the activity of PLA2G5. Hemolysis was measured by determining the amount of oxyhemoglobin in the supernatant of erythrocyte suspensions after centrifugation at 4,000 g. The absorbance at 414 nm in the supernatant of erythrocyte suspensions was measured using Nanodrop (Thermoscientific) and compared to that of a hemolyzed aliquot of the same erythrocyte suspension treated with Triton X-100.

erythrocytes = experiment: Lipidomics analysis of erythrocytes incubated with rPLA2G5; assay type: cell-based, mouse; settings: 100 ng/mL rPLA2G5; 1 h at 37° C.
Excerpt: To elucidate how PLA2G5 affected RBC membranes at the molecular level during hemolysis, the inventors performed lipidomics on erythrocytes in the presence or absence of rPLA2G5 in vitro.
Lipidomics analysis of erythrocytes. The procedures for lipidomics analysis using high-performance liquid chromatography coupled with electrospray tandem mass spectrometry (LC-ESI-MS/MS) were described above. Mouse whole blood was spun at 1,000 g, the plasma and buffy coat were removed, and red blood cells were washed three times in Hepes-buffered saline. Subsequently, a portion of erythrocytes was incubated with 100 μM CaCl2) in Hepes-buffered saline for 3 min at 37° C. Calcium ionophore (Cayman Chemical, A23187) was added to a final concentration of 4 μM, and the cells were further incubated for 10 min at 37° C. to induce membrane phospholipid (PS) scrambling. After that, 2 mM EDTA was added to stop the reaction. PS-exposing or untreated erythrocytes (10^9 cells/mL) were incubated with or without 100 ng/mL of human recombinant PLA2G5 (Cayman chemical, 10009563) for 1 h at 37° C. in Hepes-buffered saline with 2 mM of calcium for the activity of PLA2G5. The samples were kept at −80° C. until the following procedures.

[1] = Recombinant PLA2G5 injection in naive mice; assay type: in vivo, mouse; settings: 10 μg rPLA2G5 intravenously
Excerpt: Next, the inventors hypothesized that PLA2G5 impacted red blood cells in vivo during sepsis. To test this hypothesis, the inventors measured the plasma levels of heme, a degradation product of cell-free hemoglobin, in Pla2g5^+/+ and Pla2g5^−/− mice challenged with LPS. The inventors found a significant decrease in the plasma levels of heme in Pla2g5-deficient mice compared to wild type (FIG. 7A). […] The inventors next asked if PLA2G5 would be sufficient to induce intravascular hemolysis in vivo by injecting rPLA2G5 in naïve mice.
Recombinant PLA2G5 injections. C57BL/6J mice were injected intravenously with 10 μg of recombinant PLA2G5 (Cayman chemical, 10009563).
Blood analysis. Mouse whole blood was harvested by cardiac puncture and plasma and serum were isolated using lithium heparin coated Microtainer blood collection tubes (BD 365965) and Microtainer blood collection tubes (BD 365978), respectively. For flow cytometric, bead-based immunoassays, serum was diluted and processed using the LEGENDplex Mouse Macrophage/Microglia Panel (BioLegend 740846) kit. Data were acquired on the NovoCyte flow cytometer (Acea Biosciences/Agilent) and analyzed using the LEGNEDplex software v8 (BioLegend). To measure tissue injury marker levels in sera or plasma, samples were processed by In Vivo Animal Core, University of Michigan, with the following kits for BUN (BioAssay Systems DIUR-100), ALT (Cayman Chemical 700260), and troponin-I (Life Diagnostics CTNI-1-HS) levels according to the manufacturer's instructions, or with a Vet Axcel blood chemistry analyser (Alfa Wasserman). Total plasma heme was measured with the 3,3′,5,5′ tetramethylbenzidine (TMB) peroxidase assay and oxyhemoglobin with a Nanodrop One (Thermoscientific) instrument.

Molecule	effect on the hemolytic effects of rPLA2G5 (human recombinant PLA2G5)	RBC lysis (cell-free oxyhemoglobin) (mouse RBCs; RBCs treated with Ca2+ and calcium ionophore, 5, 50, or 500 ng/mL rPLA2G5, 1 h at 37° C.)	hemolysis mediated by rPLA2G5 in hypertonic conditions (mouse RBCs; hypertonic solution (100 mM NaCl))	hemolysis mediated by rPLA2G5 in hypotonic conditions (mouse RBCs; hypotonic solution (water-diluted Hepes-buffered saline))	lipids released from RBC membranes (erythrocytes)	plasma level of heme [1]	plasma level of oxyhemoglobin [1]	serum level of ALT [1]	serum level of BUN [1]
CCc1c(C(=O)C(N)=O)c2c(OCC(=O)O)cccc2n1Cc1ccccc1 [varespladib]	the hemolytic effects of rPLA2G5 were dependent on its phospholipase activity								
B1		increased RBC lysis in a dose-dependent manner	inhibited hemolysis	promoted hemolysis	release of lysophospholipids with saturation and lower degrees of unsaturation and fatty acids	sufficient to elevate	sufficient to elevate	sufficient to elevate	sufficient to elevate
